Assays:
[1] = system: AncSZ; assay: phosphorylation enrichment, bacterial display (enrichment ratio); higher = better substrate or ligand; peptides without Tyr show the background
[2] = biological target: Fyn (UniProt P06241); assay: as above
[3] = system: c-Src; assay: as above
[4] = biological target: EPHB2 (UniProt P29323); assay: as above
[5] = biological target: Fes (UniProt P07332); assay: as above
[6] = biological target: Hck (UniProt P08631); assay: as above
[7] = biological target: EPHB1 (UniProt P54762); assay: as above
Chain of EPHB1 (P54762 whole entry, looked up): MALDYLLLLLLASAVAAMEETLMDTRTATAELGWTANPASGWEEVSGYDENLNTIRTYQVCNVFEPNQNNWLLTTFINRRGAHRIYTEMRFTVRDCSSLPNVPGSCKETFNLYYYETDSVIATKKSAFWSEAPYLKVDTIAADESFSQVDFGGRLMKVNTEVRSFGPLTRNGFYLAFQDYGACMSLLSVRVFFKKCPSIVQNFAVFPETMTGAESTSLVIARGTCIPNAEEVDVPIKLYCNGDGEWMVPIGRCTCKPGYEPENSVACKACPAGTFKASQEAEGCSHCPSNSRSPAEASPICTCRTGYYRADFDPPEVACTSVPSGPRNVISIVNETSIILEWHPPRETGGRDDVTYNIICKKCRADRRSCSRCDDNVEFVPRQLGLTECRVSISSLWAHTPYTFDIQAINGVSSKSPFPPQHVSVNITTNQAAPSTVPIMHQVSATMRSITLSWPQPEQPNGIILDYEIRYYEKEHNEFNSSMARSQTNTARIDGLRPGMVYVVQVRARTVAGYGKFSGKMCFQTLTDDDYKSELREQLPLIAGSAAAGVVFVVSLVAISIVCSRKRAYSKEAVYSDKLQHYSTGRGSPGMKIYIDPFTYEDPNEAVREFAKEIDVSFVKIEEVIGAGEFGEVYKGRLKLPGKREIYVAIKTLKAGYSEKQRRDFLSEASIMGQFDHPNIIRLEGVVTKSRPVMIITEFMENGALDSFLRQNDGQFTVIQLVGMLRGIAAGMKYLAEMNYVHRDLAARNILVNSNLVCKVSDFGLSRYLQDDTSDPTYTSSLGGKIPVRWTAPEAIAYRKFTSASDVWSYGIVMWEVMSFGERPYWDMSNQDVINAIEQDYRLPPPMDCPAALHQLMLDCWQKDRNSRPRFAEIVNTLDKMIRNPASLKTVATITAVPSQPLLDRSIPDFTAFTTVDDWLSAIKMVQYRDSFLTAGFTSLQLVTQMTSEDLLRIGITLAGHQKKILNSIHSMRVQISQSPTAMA

[8] = system: c-Abl (mouse); assay: as above
[9] = biological target: FGFR1 (UniProt P11362); assay: as above
[10] = biological target: MERTK (UniProt Q12866); assay: as above
Chain of MERTK (Q12866 whole entry, looked up): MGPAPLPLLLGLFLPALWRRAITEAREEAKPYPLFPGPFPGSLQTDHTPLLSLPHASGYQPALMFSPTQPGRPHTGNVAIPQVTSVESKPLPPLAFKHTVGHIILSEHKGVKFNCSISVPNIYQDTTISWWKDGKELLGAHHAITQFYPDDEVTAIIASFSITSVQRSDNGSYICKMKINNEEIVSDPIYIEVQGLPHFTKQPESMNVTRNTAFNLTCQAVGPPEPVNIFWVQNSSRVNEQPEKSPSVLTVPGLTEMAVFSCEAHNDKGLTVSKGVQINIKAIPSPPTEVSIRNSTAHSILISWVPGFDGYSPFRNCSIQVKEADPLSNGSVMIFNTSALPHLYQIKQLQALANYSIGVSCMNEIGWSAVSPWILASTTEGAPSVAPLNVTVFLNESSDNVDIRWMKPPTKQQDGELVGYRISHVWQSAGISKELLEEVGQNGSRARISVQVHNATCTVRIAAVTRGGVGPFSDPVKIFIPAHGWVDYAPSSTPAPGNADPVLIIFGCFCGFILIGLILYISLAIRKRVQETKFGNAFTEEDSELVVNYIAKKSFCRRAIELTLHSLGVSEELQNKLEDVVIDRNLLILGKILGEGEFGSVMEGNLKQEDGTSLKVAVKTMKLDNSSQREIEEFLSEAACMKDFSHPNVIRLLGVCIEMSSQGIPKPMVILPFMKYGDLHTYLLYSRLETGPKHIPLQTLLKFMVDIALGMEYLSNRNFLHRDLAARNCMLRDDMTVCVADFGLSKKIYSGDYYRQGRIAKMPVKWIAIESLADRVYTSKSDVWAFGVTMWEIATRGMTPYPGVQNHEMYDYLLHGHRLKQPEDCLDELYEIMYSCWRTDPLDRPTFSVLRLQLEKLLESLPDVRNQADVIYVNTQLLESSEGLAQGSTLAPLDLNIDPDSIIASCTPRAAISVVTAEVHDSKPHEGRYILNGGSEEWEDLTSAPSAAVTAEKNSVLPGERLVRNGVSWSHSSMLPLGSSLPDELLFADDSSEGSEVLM

[11] = biological target: FGFR3 (UniProt P22607); assay: as above
Chain of FGFR3 (P22607 whole entry, looked up): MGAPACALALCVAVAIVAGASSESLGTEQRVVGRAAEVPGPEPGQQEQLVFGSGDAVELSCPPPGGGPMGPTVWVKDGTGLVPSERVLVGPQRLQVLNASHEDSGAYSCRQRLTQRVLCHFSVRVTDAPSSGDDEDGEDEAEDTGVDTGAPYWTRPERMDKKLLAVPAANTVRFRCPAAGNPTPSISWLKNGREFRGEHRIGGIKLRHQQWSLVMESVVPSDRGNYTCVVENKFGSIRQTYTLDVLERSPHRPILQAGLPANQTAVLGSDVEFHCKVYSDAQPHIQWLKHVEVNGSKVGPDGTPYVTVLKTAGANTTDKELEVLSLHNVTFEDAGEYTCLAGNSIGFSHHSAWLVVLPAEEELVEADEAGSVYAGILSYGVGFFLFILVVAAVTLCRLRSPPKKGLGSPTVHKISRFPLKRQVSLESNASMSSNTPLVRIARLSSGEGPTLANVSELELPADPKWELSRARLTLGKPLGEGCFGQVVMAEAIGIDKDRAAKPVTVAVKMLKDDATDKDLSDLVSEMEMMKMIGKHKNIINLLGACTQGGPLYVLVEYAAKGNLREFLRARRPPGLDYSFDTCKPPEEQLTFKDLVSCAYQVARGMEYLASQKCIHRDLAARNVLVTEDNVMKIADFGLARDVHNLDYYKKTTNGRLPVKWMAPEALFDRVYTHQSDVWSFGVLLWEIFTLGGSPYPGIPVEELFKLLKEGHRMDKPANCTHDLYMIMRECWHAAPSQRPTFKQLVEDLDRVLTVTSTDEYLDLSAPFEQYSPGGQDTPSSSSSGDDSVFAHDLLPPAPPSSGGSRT

[12] = system: Fer (mouse); assay: as above
[13] = biological target: Jak2 (UniProt O60674); assay: as above
Chain of Jak2 (O60674 whole entry, looked up): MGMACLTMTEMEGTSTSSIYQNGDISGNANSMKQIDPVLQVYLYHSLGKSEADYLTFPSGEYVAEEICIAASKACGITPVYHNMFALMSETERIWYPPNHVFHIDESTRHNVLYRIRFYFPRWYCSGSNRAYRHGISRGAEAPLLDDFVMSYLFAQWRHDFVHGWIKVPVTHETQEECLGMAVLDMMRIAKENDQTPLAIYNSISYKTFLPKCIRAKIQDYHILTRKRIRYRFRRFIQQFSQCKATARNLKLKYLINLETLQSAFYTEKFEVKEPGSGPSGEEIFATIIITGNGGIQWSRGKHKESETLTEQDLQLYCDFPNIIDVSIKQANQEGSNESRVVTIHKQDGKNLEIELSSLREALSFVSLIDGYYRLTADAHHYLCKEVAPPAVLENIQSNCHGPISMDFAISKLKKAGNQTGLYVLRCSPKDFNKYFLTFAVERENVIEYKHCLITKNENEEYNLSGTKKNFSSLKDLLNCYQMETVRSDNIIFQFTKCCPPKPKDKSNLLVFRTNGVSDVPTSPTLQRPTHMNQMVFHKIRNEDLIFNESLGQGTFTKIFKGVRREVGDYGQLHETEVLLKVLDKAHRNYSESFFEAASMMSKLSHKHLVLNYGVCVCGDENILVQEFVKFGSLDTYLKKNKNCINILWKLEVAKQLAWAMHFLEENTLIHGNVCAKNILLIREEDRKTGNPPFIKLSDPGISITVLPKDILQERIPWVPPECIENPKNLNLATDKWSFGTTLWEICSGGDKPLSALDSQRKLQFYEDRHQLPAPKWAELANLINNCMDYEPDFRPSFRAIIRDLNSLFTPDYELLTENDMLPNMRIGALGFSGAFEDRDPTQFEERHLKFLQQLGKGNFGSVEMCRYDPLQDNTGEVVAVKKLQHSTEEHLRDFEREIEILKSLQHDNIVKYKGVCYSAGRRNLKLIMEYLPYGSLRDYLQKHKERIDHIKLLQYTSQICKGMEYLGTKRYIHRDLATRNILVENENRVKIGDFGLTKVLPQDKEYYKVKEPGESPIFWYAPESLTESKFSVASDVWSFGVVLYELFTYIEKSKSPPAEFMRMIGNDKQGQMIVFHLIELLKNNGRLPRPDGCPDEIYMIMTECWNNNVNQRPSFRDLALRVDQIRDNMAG

[14] = biological target: SHP2-C SH2; assay: SH2 binding enrichment of the phosphorylated peptide, bacterial display (enrichment ratio); higher = better substrate or ligand; peptides without Tyr show the background
[15] = biological target: c-Src SH2; assay: as above
[16] = biological target: Grb2 SH2 (UniProt P62993); assay: as above
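Throughout, for SH2 binding enrichment of the phosphorylated peptide, bacterial display: peptide library displayed on the E. coli surface as eCPX fusions, selected cells deep-sequenced, score is each peptide's frequency after selection divided by its frequency in the input.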
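Throughout, for phosphorylation enrichment, bacterial display: 11-residue human phosphosite peptides and single-mutation variants displayed on the E. coli surface, counted by deep sequencing, each peptide's frequency after selection divided by its frequency in the unselected input library; frequency after pTyr selection over input frequency; kinase dosed for 20-30% of maximal phosphorylation in three min.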

Chain of Hck (P08631 whole entry, looked up): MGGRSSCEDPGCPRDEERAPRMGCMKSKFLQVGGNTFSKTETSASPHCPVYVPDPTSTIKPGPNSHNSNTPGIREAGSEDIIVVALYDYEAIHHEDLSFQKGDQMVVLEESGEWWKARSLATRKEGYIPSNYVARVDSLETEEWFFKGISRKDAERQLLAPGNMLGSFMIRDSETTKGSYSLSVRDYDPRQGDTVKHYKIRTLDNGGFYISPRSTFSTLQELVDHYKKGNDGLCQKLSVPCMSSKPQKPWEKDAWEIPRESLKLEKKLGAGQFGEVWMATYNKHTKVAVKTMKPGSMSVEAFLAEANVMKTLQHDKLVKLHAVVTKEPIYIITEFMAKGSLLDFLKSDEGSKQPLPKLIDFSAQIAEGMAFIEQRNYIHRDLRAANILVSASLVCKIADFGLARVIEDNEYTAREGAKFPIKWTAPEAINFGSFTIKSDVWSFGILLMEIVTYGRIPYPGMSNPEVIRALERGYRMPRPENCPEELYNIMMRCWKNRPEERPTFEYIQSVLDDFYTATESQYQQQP
Chain of Fyn (P06241 whole entry, looked up): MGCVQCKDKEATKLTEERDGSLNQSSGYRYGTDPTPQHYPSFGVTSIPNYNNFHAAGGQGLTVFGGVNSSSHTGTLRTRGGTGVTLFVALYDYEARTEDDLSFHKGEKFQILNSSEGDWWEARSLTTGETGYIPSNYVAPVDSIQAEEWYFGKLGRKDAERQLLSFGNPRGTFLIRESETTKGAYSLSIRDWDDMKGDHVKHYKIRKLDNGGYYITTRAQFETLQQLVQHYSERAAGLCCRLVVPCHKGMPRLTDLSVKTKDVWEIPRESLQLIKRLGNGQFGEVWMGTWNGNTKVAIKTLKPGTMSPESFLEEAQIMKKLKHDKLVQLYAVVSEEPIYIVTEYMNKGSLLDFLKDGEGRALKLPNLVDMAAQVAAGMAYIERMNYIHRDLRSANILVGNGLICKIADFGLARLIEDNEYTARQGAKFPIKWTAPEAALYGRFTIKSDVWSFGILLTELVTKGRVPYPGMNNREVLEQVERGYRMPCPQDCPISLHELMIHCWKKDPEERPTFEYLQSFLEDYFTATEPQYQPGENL

Row | SH2 binding enrichment [14] | SH2 binding enrichment [15] | SH2 binding enrichment [16] | Sequence | phosphorylation enrichment [1] | phosphorylation enrichment [2] | phosphorylation enrichment [3] | phosphorylation enrichment [4] | phosphorylation enrichment [5] | phosphorylation enrichment [6] | phosphorylation enrichment [7] | phosphorylation enrichment [8] | phosphorylation enrichment [9] | phosphorylation enrichment [10] | phosphorylation enrichment [11] | phosphorylation enrichment [12] | phosphorylation enrichment [13]
1 | 0.592 | 0.469 | 0.889 | SLEKSYKLPDG [ACTA1_Y242_E243K] | 0.658 | 0.397 | 0.41 | 0.434 | 0.757 | 0.393 | 0.408 | 0.574 | 0.467 | 0.462 | 0.455 | 0.429 | 0.649
2 | 0.636 | 5.05 | 0.916 | SLQAHYDTPRS [DOK7_Y405_R402Q] | 0.513 | 0.366 | 0.368 | 0.479 | 0.539 | 0.37 | 0.435 | 3.19 | 0.352 | 0.529 | 0.38 | 0.593 | 0.53
3 | 1 | 0.359 | 0.701 | SMAKFYASGIA [ACADSB_Y373_E376G_YF] | 0.738 | 0.461 | 0.352 | 0.485 | 0.636 | 0.469 | 0.344 | 0.51 | 0.428 | 0.464 | 0.561 | 0.369 | 0.677
4 | 0.88 | 0.414 | 0.68 | SNMPTYSGHFT [GRIN2A_Y1224] | 0.529 | 1.71 | 2.04 | 0.602 | 0.557 | 1.47 | 0.636 | 0.457 | 0.354 | 0.74 | 0.428 | 3.39 | 0.653
5 | 0.927 | 0.72 | 0.936 | SNNFIYTTLGV [FAM83B_Y639_K640T_YF] | 0.899 | 7.76 | 5.65 | 1.39 | 0.885 | 7.53 | 2.23 | 1.56 | 1.22 | 6.9 | 1.16 | 2.67 | 0.666
6 | 0.968 | 0.393 | 1.01 | SNNYIYKTLGV [FAM83B_Y639] | 0.523 | 0.467 | 0.476 | 0.328 | 0.58 | 0.549 | 0.48 | 0.494 | 0.484 | 0.357 | 0.546 | 0.354 | 0.46
7 | 1.67 | 1.07 | 1.41 | SPFMLYQFLKQ [RPAP3_Y567_D564Y_YF] | 1.15 | 0.621 | 0.867 | 2.73 | 1.34 | 4.2 | 4.55 | 0.938 | 1.14 | 4.11 | 0.99 | 3.37 | 1.07
8 | 0.503 | 0.479 | 0.76 | SPRDTYSDRSG [CTPS1_Y567] | 0.494 | 0.443 | 0.375 | 0.473 | 0.572 | 0.507 | 0.298 | 0.608 | 0.382 | 0.322 | 0.438 | 0.369 | 0.521
9 | 0.548 | 0.433 | 0.674 | SRASFYRKGGC [ALK_Y1283_Y1278S_YF] | 0.702 | 0.433 | 0.575 | 0.467 | 0.627 | 0.477 | 0.431 | 0.529 | 0.381 | 0.567 | 0.496 | 0.476 | 0.615
10 | 0.489 | 1.28 | 0.913 | SREALYNEMDP [CACNA1A_Y794] | 1.41 | 0.685 | 0.869 | 0.693 | 1.24 | 0.834 | 0.735 | 0.852 | 0.692 | 2.36 | 0.896 | 0.731 | 1.14
11 | 0.69 | 0.437 | 0.899 | SRLSAYPALEG [CD5_Y465_H461R] | 0.723 | 0.425 | 0.533 | 0.495 | 0.803 | 0.436 | 0.348 | 0.471 | 0.486 | 0.496 | 0.469 | 0.391 | 0.674
12 | 0.594 | 0.44 | 0.792 | SSDKVYAHQMV [MLH1_Y379] | 0.551 | 0.538 | 0.514 | 0.401 | 0.573 | 0.458 | 0.404 | 0.537 | 0.379 | 0.476 | 0.416 | 0.494 | 0.431
13 | 0.607 | 0.376 | 0.688 | SSEFHYVGGFF [CTSC_Y347_YF] | 0.949 | 0.516 | 0.707 | 0.532 | 1.16 | 0.544 | 0.646 | 0.897 | 0.572 | 0.428 | 0.813 | 0.558 | 0.904
14 | 2.81 | 0.509 | 0.816 | SSFPDYLAAVD [GLB1_Y154_D151Y_YF] | 1.31 | 0.586 | 0.497 | 0.603 | 1.09 | 0.576 | 0.604 | 0.703 | 0.676 | 0.422 | 0.761 | 0.66 | 0.925
15 | 0.433 | 0.607 | 0.643 | SSMIDYNTLEK [MYOC_Y479_P481T] | 0.792 | 0.452 | 0.401 | 0.506 | 0.748 | 0.482 | 0.428 | 0.486 | 0.401 | 0.408 | 0.568 | 0.453 | 0.904
16 | 0.901 | 0.442 | 0.882 | SSPVLYLSPET [TJP1_Y931_P930L] | 1.21 | 0.534 | 0.469 | 0.815 | 0.833 | 0.626 | 1.14 | 1.61 | 0.663 | 0.782 | 0.713 | 0.459 | 1.02
17 | 0.62 | 0.462 | 0.924 | SSSGGYGGGYG [KRT19_Y61_A60G] | 0.456 | 0.352 | 0.377 | 0.337 | 0.534 | 0.379 | 0.326 | 0.374 | 0.408 | 0.342 | 0.335 | 0.333 | 0.479

Row | SH2 binding enrichment [14] | SH2 binding enrichment [15] | SH2 binding enrichment [16] | Sequence | phosphorylation enrichment [1] | phosphorylation enrichment [2] | phosphorylation enrichment [3] | phosphorylation enrichment [4] | phosphorylation enrichment [5] | phosphorylation enrichment [6] | phosphorylation enrichment [7] | phosphorylation enrichment [8] | phosphorylation enrichment [9] | phosphorylation enrichment [10] | phosphorylation enrichment [11] | phosphorylation enrichment [12] | phosphorylation enrichment [13]
18 | 0.859 | 0.513 | 0.759 | STQAHYRLSAF [ADAMTS9_Y100_S96T] | 0.582 | 0.461 | 0.323 | 0.381 | 0.63 | 0.456 | 0.395 | 0.427 | 0.44 | 0.409 | 0.536 | 0.386 | 0.487
19 | 0.797 | 0.591 | 0.977 | SVEVPYEPPEV [TP53_Y220_V217E] | 1.44 | 0.603 | 0.549 | 0.675 | 1.4 | 0.596 | 0.579 | 1.08 | 0.622 | 0.564 | 0.907 | 0.572 | 1.41
20 | 0.917 | 0.739 | 1.05 | SVFNNYIQTLG [CTNND1_Y174_S171F] | 0.705 | 0.442 | 0.402 | 0.418 | 0.678 | 0.463 | 0.835 | 0.557 | 0.585 | 0.411 | 0.528 | 0.391 | 0.775
21 | 0.653 | 0.472 | 0.88 | SVIKEYQIRQV [USH2A_Y3623_G3618S] | 0.648 | 0.352 | 0.381 | 0.346 | 0.68 | 0.443 | 0.505 | 0.409 | 0.377 | 0.328 | 0.509 | 0.415 | 0.567
22 | 0.781 | 0.936 | 0.826 | SVVVPYEPPGV [TP53_Y220_E224G] | 0.883 | 0.544 | 0.407 | 0.53 | 0.769 | 0.471 | 0.525 | 0.494 | 0.469 | 0.485 | 0.56 | 0.498 | 0.55
23 | 0.619 | 0.864 | 0.66 | SVVVPYEPTEV [TP53_Y220_P223T] | 0.992 | 0.522 | 0.482 | 0.765 | 1.33 | 0.506 | 0.725 | 0.885 | 0.481 | 0.578 | 0.742 | 0.709 | 1.27
24 | 0.694 | 1.83 | 0.827 | SVVVPYETPEV [TP53_Y220_P222T] | 1.42 | 0.541 | 0.505 | 0.862 | 1.41 | 0.56 | 0.715 | 0.849 | 0.569 | 0.556 | 0.774 | 0.639 | 1.14
25 | 0.671 | 0.537 | 0.835 | SVVVPYGPPEV [TP53_Y220_E221G] | 0.75 | 0.46 | 0.425 | 0.543 | 0.739 | 0.41 | 0.472 | 0.601 | 0.57 | 0.476 | 0.556 | 0.402 | 0.689
26 | 1.25 | 1.11 | 0.871 | SYMVRYNQPRV [GRIN2D_Y736] | 0.721 | 0.38 | 0.432 | 0.51 | 0.734 | 0.385 | 0.46 | 0.694 | 0.561 | 0.45 | 0.523 | 0.419 | 0.651
27 | 0.461 | 0.388 | 0.732 | TDLAFYLVCKG [ASL_Y376_R379C_YF] | 1.31 | 0.411 | 0.48 | 0.593 | 1.7 | 0.547 | 0.79 | 1.14 | 0.551 | 0.446 | 0.94 | 0.647 | 1.57
28 | 0.647 | 0.638 | 0.848 | TEAEPYFCSLR [NPHS1_Y1138_R1140C_YF] | 1.11 | 0.544 | 0.932 | 0.615 | 1.22 | 0.576 | 0.565 | 0.814 | 0.551 | 0.48 | 0.698 | 0.466 | 1.51
29 | 0.636 | 0.423 | 0.778 | TEAGDYKLCFD [TMED1_Y103] | 1.38 | 0.598 | 0.54 | 0.65 | 1.35 | 0.564 | 0.773 | 0.888 | 0.653 | 0.496 | 1.02 | 0.619 | 1.27
30 | 0.48 | 0.797 | 0.513 | TEALYYTDDPA [ADPRS_Y75_T79P] | 1.97 | 1.91 | 2.59 | 0.882 | 1.82 | 1.79 | 1.2 | 1.09 | 5.2 | 6.2 | 5.62 | 1.92 | 1.06
31 | 0.871 | 0.557 | 0.913 | TEDPEYDVQSK [PTCHD3_Y335] | 1.18 | 0.616 | 0.435 | 0.661 | 1.01 | 0.669 | 0.521 | 0.679 | 0.689 | 0.358 | 0.738 | 0.564 | 0.936
32 | 0.411 | 0.397 | 0.653 | TEYSQYMRRKN [MAX_Y73_I71S] | 0.674 | 0.536 | 0.523 | 0.563 | 0.622 | 0.562 | 0.476 | 0.418 | 0.548 | 0.558 | 0.508 | 0.443 | 0.507
33 | 0.65 | 0.442 | 0.791 | TGNPAYRSFSN [IL4R_Y497_A492T] | 0.595 | 0.369 | 0.373 | 0.328 | 0.584 | 0.404 | 0.328 | 0.441 | 0.406 | 0.326 | 0.457 | 0.326 | 0.422

From the supplement of paper PMC10065799, “High-throughput profiling of sequence recognition by tyrosine kinases and SH2 domains using bacterial peptide display” (eLife, 2023)
